Data on 40 sequences can be found in the nanobody polyreactivity screen of Harvey et al. (2022).

The data set in a line: yeast display, Sf9 membrane polyspecificity reagent, FACS + sequencing; frameworks hold sequencing errors. In a few lines:
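Synthetic nanobody libraries on Saccharomyces cerevisiae BJ5465 were galactose-induced for 36–48 hours, stained 1 hour at 4 °C with 10% biotinylated, detergent-solubilized Sf9 membrane reagent and enriched on streptavidin microbeads. FACS then separated cells into low and high (top ~1%) gates by anti-HA (expression) and streptavidin (reagent binding) fluorescence. Genes were colony-PCR amplified, MiSeq 2 × 250 sequenced and CDR-length filtered. A clone's polyreactivity label is that of its gate of origin.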
Regarding “QVQLVESGGGLVQAGGSLRLSCAASGRTFGRYAMGGYRQAPGKERELVAAINSGGSTYYADSVKGRFTISRDNAKNTVYLQMNSLKPEDTAVYYCAADWYYWGFIFDYWGQGTQVTVSS”, the “polyreactivity (PSR sort gate)” value is recorded as “high polyreactivity”.
For “QVQLVESGGGLVQAGGSLRLSCAASGRTFGRYAMGWSRQAPGKERELVATITSGGSTNYADSVKGRFTISRDNAKNTVYLQMNSLKPEDTAVYYCAAEFSPSRWAYSEGALRYNYWGQGTQVTVSS” the value was “low polyreactivity”; for “QVQLVESGGGLVQAGGSLRLSCAASGRTFGRYAMGWYRQAPGKEREFVASMSRRGGTTYYADSVKGRFTISRDNEKNTVYLQMNSLNPEDTAVYYCNADRTVIYDYEYWGQGTQVTVSS”, “low polyreactivity”.
Take “QVQLVESGGGLVQAGGSLRLSCAASGRTFGRYAMGWYRQAPGKERELVAAINRGGSTKYADSVKGRFTISRDNAKNTVYLQRNSQKPEDSAVYYCAKDLHPALHYDYWGQGTQVTVSS”: the “polyreactivity (PSR sort gate)” value is recorded as “low polyreactivity”.
For “QVQLVESGGGLVQAGGSLRLSCAASGRTFGRYAMGWYRQAPGKERELVAAISWSGGSTYYADSVKGRFTISRDNAKNSVYLQMNSLKPEDTAVYYCAAYEHVYVYDYWGQGTQVTVSS” the value was “low polyreactivity”; for “QVQLVESGGGLVQAGGSLRLSCAASGRTFGRYAMGWYRQAPGKERELVAAISYSTDSTYYADSVKGRFTISRDNAKNTVYLQMNSLKPEDTAVYYCASDSVIVGSYVGDKHDYWGQGTQVTVSW”, “low polyreactivity”.
For “QVQLVESGGGLVQAGGSLRLSCAASGRTFGRYAMGWYRQAPGKERELVAVISWSDGGTNYADSVKGRFTISRDNAKNTVYLQMNSLKPEDTAVYYCNAELSFRYPVFRELDYWGQGTQVTVSS” the value was “low polyreactivity”; for “QVQLVESGGGLVQAGGSLRLSCAASGRTFGRYAMGWYRQAPWKERELVAAITVGGGSTYYADSVKGRFTISRDNAKNTVYLQMNSLKPEDTAVYYCNALHTYTYRYDYYYWGQGTQVTVSS”, “high polyreactivity”; for “QVQLVESGGGLVQAGGSLRLSCAASGRTFGRYTMGWYRQAPGKERELVAAITGRGGSTFYADSVKGRFTISRDYAKNTVYLQMNSLKPEDTAVYYCAARRTSIKDQFYYWGQGTQVTVSS”, “high polyreactivity”.
For “QVQLVESGGGLVQAGGSLRLSCAASGRTFGRYVMGWYIQAPGKERELVARISSAGGTNYADSVKGRFTISRDNAKNTVYLQMNSLKPEDTAVYYCNFTRYWRAHLGYYWGQGTQVTVSS” the value was “high polyreactivity”; for “QVQLVESGGGLVQAGGSLRLSCAASGRTFGSNAMGWFIQAPGKERELVAAISSSDSTNYADSVKGRFTISRDNAKNTVYLQMNSLKPEETAVYYCNAGHPVRSPGYDYWGQGTQVTVSS”, “low polyreactivity”; for “QVQLVESGGGLVQAGGSLRLSCAASGRTFGSNAMGWYRQAPGKERELVAAIRWGGGSTYYADSVKGRFTISRDNAKNTVYLQMNSLKPEDTAVYYCAAAYNWRKYDYWGQGTQVTVSS”, “high polyreactivity”.
On to “QVQLVESGGGLVQAGGSLRLSCAASGRTFGSNAMGWYRQAPGKERELVAAISVRGGRTYSADSVKGRFTISRDNAKNTVSLQMNSLKPEDTAVYYCAADPYPISKYWFYHAVDYDSWGQGTQVTVSS”, for which the “polyreactivity (PSR sort gate)” value is reported as “high polyreactivity”.
As to “QVQLVESGGGLVQAGGSLRLSCAASGRTFGSNTMGWYRQAPGKERELVAAISGTGTSTYYADSVKGRFTISRDNAKNTVYLQMNSLKQEDTAVYYCAAGWYKYLFQPHDYWGQGTQVTVSS”, the “polyreactivity (PSR sort gate)” value was “low polyreactivity”.
For “QVQLVESGGGLVQAGGSLRLSCAASGRTFGSYVMVWYRQAPGKEREFVAVISGSVGSTYYADSVKGRFTISRDNAKNTVYLQMNSLKPEDTAVYYCARRGIRTSETKQYHQYNYWGQGTQVTVSS” the value was “low polyreactivity”; for “QVQLVESGGGLVQAGGSLRLSCAASGRTFGTNTMGWYRPAPGKERELVAAISRSGVRTYYADSVKGRFTISRDNAKNTVYLQMKSLKPEDTAVYYCATDYKVHGFDYWGQGTQVTVSS”, “high polyreactivity”.
As for “QVQLVESGGGLVQAGGSLRLSCAASGRTFGTYAMGWYIQAPGKERELVAAIRSNAGSTYYADSVKGRFTISRDNAKNTVYLQMNSLKPEDNAVYYCAKSYRCSRRYNYWGQGTQVTVSS”, the entry is “high polyreactivity”.
For the sequence “QVQLVESGGGLVQAGGSLRLSCAASGRTFGTYAMGWYRQAPGKERELVAAISTRDGSTYYADSVKGRFTISRDNAKNTVYLQMNSLKPEDTAVYYCNATWSVPSGQYDYWGQGTQVTVSS”, the “polyreactivity (PSR sort gate)” value is “low polyreactivity”.
“QVQLVESGGGLVQAGGSLRLSCAASGRTFGTYAMGWYRQAPGKERELVARISYTGGSTSYADSVKGRFTISRDNAKNTVYLQMNSLKPEDTAVYYCNASSRSGSWRFYYWGQGTQVTVSS”: the “polyreactivity (PSR sort gate)” value is on record as “high polyreactivity”.
As for “QVQLVESGGGLVQAGGSLRLSCAASGRTFGTYAMGWYRQEPGKERELFATISSGGSTYYADSVKGRFTISRDNAKNTVYLLMNSLKPEDTAVYYCAAYRYFRPGDYWGQGTQVNVSS”, the entry is “low polyreactivity”.
As for “QVQLVESGGGLVQAGGSLRLSCAASGRTFGTYVMGWYRQAPGKERELVAAITGSGGSTYYADSVKGRFTISRDNAKNTVYLQMNSLKPEDPAVYYCAARAYQHYNWGQGTQVTVSS”, the entry is “high polyreactivity”; as for “QVQLVESGGGLVQAGGSLRLSCAASGRTFGVNAMGWYRQAPRKERELVARIRVSGGRTYYADSVKGRFTISRDNAKNSVYLLMNSLKPEDTAVYYCNAGDTYNRVIWPYYYCGQGTQVTVSS”, “high polyreactivity”; as for “QVQLVESGGGLVQAGGSLRLSCAASGRTFGVYAMGWYRQAPGKERELVAAIRWSGGGTYYADSVKGRFTISPDNAKNTVYLQMNSLKPEDTAVYYCAATFQNSPYTRYTDMYYWGQGTQVTVSS”, “low polyreactivity”.
Consider “QVQLVESGGGLVQAGGSLRLSCAASGRTFGVYAMGWYRQAPGKERELVAAISKSDGSTYYADSVKGRFTISRDNAKNTVYLQMNSLKPEDTAVYYCATVTRHQRDTQYDYWGQGTQVTVSS”, for which the “polyreactivity (PSR sort gate)” value is “low polyreactivity”.
For “QVQLVESGGGLVQAGGSLRLSCAASGRTFGVYAMGWYRQAPGKERELVAGIRWRGGSTYYADSVKGRFTISRDNAKNTVYLQMNSLKPEDTAVYYCAAKVYYLYDSIWAWVIIRYDYWGQGTQVTVSS” the value was “low polyreactivity”; for “QVQLVESGGGLVQAGGSLRLSCAASGRTFGVYAMGWYRQAPGKERELVATIRRGGSTYYADSVKGRFTISRDNAKNTVYLQMNSLKPEDTAVYYCNASHVTWNRKYDYWGQGTQVTVSS”, “low polyreactivity”.
For “QVQLVESGGGLVQAGGSLRLSCAASGRTFGVYAMGWYRQAPGKERELVPAIRWSGGGTYYADSVKGRFTISRDTAKNTVYVQMNSLKPEDTAVYYCAASFQNSPYTRYTDMYYWGQGTQVTVTS” the value was “low polyreactivity”; for “QVQLVESGGGLVQAGGSLRLSCAASGRTFGVYMGWYRQAPGKERELVAVISSGDSTNYADSVKGRFTISRDNAKNTVYLQMNSLKPEDTAVYYCNAYGSDRLTLDDYWGQGTQVTVSS”, “low polyreactivity”.
As for “QVQLVESGGGLVQAGGSLRLSCAASGRTFGWNAMGWSRQAPGKERELVAAISRTGNTYYADSVKGRFTISRDNAKNTVYLQMNSLKPEDTAVYYCAKGRYYTPTYFRGVDLYDYWGQGTQVTVSS”, the entry is “low polyreactivity”; as for “QVQLVESGGGLVQAGGSLRLSCAASGRTFGWNAMGWYIQAPGKERELVAAITSGGSTSYADSVKGRFTISRDNEKNTVYLQMNCLKPEDTAVYYCAAYLGIYSRVNYWGQGTQVTVSS”, “low polyreactivity”.
With “QVQLVESGGGLVQAGGSLRLSCAASGRTFGWNVMGWYRQAPGKERELVAAISGGGTSTYYADSVKGRFTISRDNAKNTVYLQMNSLKPEDTGVYYCNAYYPGSYYPRSGRYDYWGQGTQVTVSS”, the “polyreactivity (PSR sort gate)” value is given as “high polyreactivity”.
For the sequence “QVQLVESGGGLVQAGGSLRLSCAASGRTFGWNVMGWYRQAPGKERELVAAISGSGASTYYADSVKGRFTISRDNAKNTVYLQMNSLKPEDTAVYYCAAVQGYRFYEYYYWGQGTKVTVSS”, the “polyreactivity (PSR sort gate)” value is “low polyreactivity”.
As for “QVQLVESGGGLVQAGGSLRLSCAASGRTFGYAMGWYRQAPGKERERVAAISSGGGRTYYADSVKGRFTISRDNAKNTVYLQMNSLKPEDTAVFYCNARHIFGASRRARFGYWGQGTQVTVSS”, the entry is “high polyreactivity”; as for “QVQLVESGGGLVQAGGSLRLSCAASGRTFGYNAMAWYRQAPRKERELVAAISRGGSTNYADSVKGRFTISRDNAKNTVYLQMNSLKPEDTAVYYCAAYDWRVLWGYDYWGQGTQVTVSS”, “low polyreactivity”; as for “QVQLVESGGGLVQAGGSLRLSCAASGRTFGYNAMGWYRQAPGKERELVAAINDGGSTNYADSVKGRFTISRDNAKNTVYLQMNSLKPEDTAVYYCATDFSNGRQSTFPYEYYYWGQGTQVTVSS”, “high polyreactivity”.
As for “QVQLVESGGGLVQAGGSLRLSCAASGRTFGYNAMGWYRQAPGKERELVAAITYSGGRTSYADSVKGRFTISRDNAKNTVYLQMNSLKPEDTAFYYCAAQPRYYSGYNYWGQGTQVTVSS”, the entry is “high polyreactivity”.
For “QVQLVESGGGLVQAGGSLRLSCAASGRTFGYNGMGWYRQAPGKEREFVAAITWSGGRTYYADSVKGRFTISRDKAKNTVYLQMNSLKPEDTAVYYCAAGKYRYTYYALEYDYWGQGTQVTVSS” the value was “low polyreactivity”; for “QVQLVESGGGLVQAGGSLRLSCAASGRTFGYNTMGWYRQAPGKEREFVATIRTNGVSTYYADSVKGRFTISRDNAKNTVYLQMNSLKPEDTAVYYCNAPRTRKQKTIYVNAPGNYWGQGTQVTVSS”, “low polyreactivity”; for “QVQLVESGGGLVQAGGSLRLSCAASGRTFGYNVMGWYRQAPGKEMELVAGITSSGSTNYADSVKGRFTISRDNAKNTVYLQMNSLKPEDTAVYYCNADRLITWQLLYISSYRYDYWGQGTQVTVSS”, “high polyreactivity”.
Regarding “QVQLVESGGGLVQAGGSLRLSCAASGRTFGYYAMGWYRPAPGKEREFVAAISFRTTSTYYADSVKGRFTISRDNAKNTVYLQLNSLKPEDTAVYYCNVVVKGAWDYYPYDYWGQGPQVTVSS”, the “polyreactivity (PSR sort gate)” value was “high polyreactivity”.
